We go through one molecule from patent publication US6960429B2, “Inhibition of viral gene activities” (priority 1997, dated 2005).

In assay [1] the target is T1, NΔ360 (derivative of EBNA1) (Epstein-Barr virus, UniProt P03211).
T1 construct: NΔ360 and NΔ389 have a methionine followed by amino acids 361 and 390 to the carboxy-terminus, respectively; added initiator methionine (N); made in house; host or cells: E. coli
In kind it is biochemical. The text has this: Two DNAs used as probes in this study were generated by endonuclease digestion of cloned DNAs. That with two EBNA1-binding sites is the 131 bp, SalI to PstI fragment derived from p880 (30); and that with five GAL4-binding sites is the 109 bp, HinDIII to XbaI fragment derived from G5BCAT (31). DNA fragments were purified from agarose gels. […] This method distinguishes less than two-fold differences in DNA concentrations. These DNAs were labeled with the Klenow fragment of DNA Polymerase 1 in the presence of dATP, dGTP, dTTP, and ^32P α-dCTP (Amersham), and precipitated three times to remove unincorporated label (32).
The derivatives of EBNA1 (bEBNA1, NΔ360, NΔ389) and the GAL4 derivatives (GAL4(1-94), GAL4(1-94)&54-89, GAL4(1-94)&331-361, GAL4(1-94)&372-391) used in this study were all produced and purified as previously described (28). Briefly, bEBNA1 lacks amino acids 2 through 7 and all but fifteen amino acids of the gly-gly-ala repeats and was expressed in SF21 cells (23). NΔ360 and NΔ389 lack the first 360 and 389 amino acids, respectively, and were expressed in E. coli. GAL4(1-94) contains amino acids 1 to 94 of the yeast transactivator GAL4 plus eight carboxy-terminal amino acids coded by the poly-cloning region. The fusions designated GAL4(1-94)&#—# contain the indicated residues from EBNA1 cloned in frame into the poly-cloning region. All derivatives and fragments of EBNA1 were derived from the B95-8 viral strain (33, 15).
A.A. 40-89 and A.A. 331-391 were generated by amplifying the fragment of EBNA1 encoding those amino acids with PCR primers containing SalI and XbaI sites at the 5′ ends. […] The sequence of both clones was verified using an ABI Prism automated sequencer (Applied BioSystems). Expression of the fusion proteins in BL21 bacteria containing a DE3 lysogen and carrying pLysS was done as previously described (28). […]
Gel shift assays were done as previously described (28). […] The percentage of DNA linked is determined by dividing the amount of linked DNA by the total amount of DNA in the lane. […]

Assay [2] has as its target bEBNA1 (derivative of EBNA1). Format: biochemical, Epstein-Barr virus. How it is done:
Two DNAs used as probes in this study were generated by endonuclease digestion of cloned DNAs. That with two EBNA1-binding sites is the 131 bp, SalI to PstI fragment derived from p880 (30); and that with five GAL4-binding sites is the 109 bp, HinDIII to XbaI fragment derived from G5BCAT (31). DNA fragments were purified from agarose gels. They were quantified by making serial dilutions in the presence of ethidium bromide (0.5 μg/mL) and comparing their intensities, when exposed to ultraviolet light, to that of similar dilutions of a standard DNA. This method distinguishes less than two-fold differences in DNA concentrations. These DNAs were labeled with the Klenow fragment of DNA Polymerase 1 in the presence of dATP, dGTP, dTTP, and ^32P α-dCTP (Amersham), and precipitated three times to remove unincorporated label (32).
The derivatives of EBNA1 (bEBNA1, NΔ360, NΔ389) and the GAL4 derivatives (GAL4(1-94), GAL4(1-94)&54-89, GAL4(1-94)&331-361, GAL4(1-94)&372-391) used in this study were all produced and purified as previously described (28). Briefly, bEBNA1 lacks amino acids 2 through 7 and all but fifteen amino acids of the gly-gly-ala repeats and was expressed in SF21 cells (23). […]
Gel shift assays were done as previously described (28). […] The percentage of DNA linked is determined by dividing the amount of linked DNA by the total amount of DNA in the lane.

T1 sequence (P03211 361-641, stated change not applied): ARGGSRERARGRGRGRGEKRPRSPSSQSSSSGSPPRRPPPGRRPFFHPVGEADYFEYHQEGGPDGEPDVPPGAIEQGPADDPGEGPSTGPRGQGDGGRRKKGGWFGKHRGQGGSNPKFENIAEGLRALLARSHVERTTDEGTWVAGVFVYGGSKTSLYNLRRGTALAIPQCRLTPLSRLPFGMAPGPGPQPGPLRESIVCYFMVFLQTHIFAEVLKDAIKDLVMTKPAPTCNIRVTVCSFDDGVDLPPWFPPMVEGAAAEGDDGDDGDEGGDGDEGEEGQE

B1: Rnase A: control protein (protein, UniProt P61823 27-150, looked up)
Ribonuclease pancreatic: KETAAAKFERQHMDSSTSAASSSNYCNQMMKSRNLTKDRCKPVNTFVHESLADVQAVCSQKNVACKNGQTNCYQSYSTMSITDCRETGSSKYPNCAYKTTQANKHIIVACEGNPYVPVHFDASV
Usually Ki stands for a dissociation constant, usually derived from enzyme kinetics or from competition with a known ligand. Take B1: the Ki is 30 µM in assay [1] (6.5 nM dimers of NΔ360, 20 fmols DNA with two EBNA1-binding sites, Ki = concentration of competitor which inhibits linking to 50%, read-out: Ki against NΔ360) and over 42 µM in assay [2] (6.5 nM dimers of bEBNA1, 20 fmols DNA with two EBNA1-binding sites, Ki = concentration of competitor which inhibits linking to 50%, read-out: Ki against bEBNA1). For the same molecule, in assay [1] (DNAs with two EBNA1-binding sites, read-out: Concentration inhibiting linking by NΔ360 to 50%), the IC50 turned out to be 30 µM. For the same molecule, the “Amount required to reduce linking by 50% relative to A.A. 331-391” value in assay [1] (linking by NΔ360) was “Approximately 1000 fold”. Moreover, the “Sensitivity of bEBNA1-mediated linking to competitor” value in assay [2] (DNAs with two binding sites, range of concentrations tested) is “insensitive”.
